Source: publication PMC4398458, “Reversible Linkage of Two Distinct Small Molecule Inhibitors of Myc Generates a Dimeric Inhibitor with Improved Potency That Is Active in Myc Over-Expressing Cancer Cell Lines” (PLoS ONE, 2015)

Molecular target: c-Myc bHLH-LZ;Max (human;human, UniProt P01106-1;P61244 352-439;1-160, |)
Assay: EMSA; Myc:Max heterodimer, no inhibitor; EMSA: 100 mM KCl, 1 mM DTT, 1 mM EDTA, 50 mM Tris pH 7.4, 5 mM MgCl2, 0.002% NP40, 2% DMSO, room temperature; 200 ng Myc, 350 ng Max, 100 nM DNA, 10 ul; gel run in TBE at 4 C
Conditions: protein: recombinant;commercial; tags: N-terminal 6xHis with TEV cleavage site; C-terminal GGCD extension;His and GST; copies: 1;1; label: none (SYBR Green stain); (only one strand given)

Chain of c-Myc bHLH-LZ;Max (P01106 367-454, chain 1 of 2): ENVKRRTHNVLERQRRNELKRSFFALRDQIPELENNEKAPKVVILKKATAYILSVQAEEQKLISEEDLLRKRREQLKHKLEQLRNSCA
Chain of c-Myc bHLH-LZ;Max (P61244 whole entry, chain 2 of 2): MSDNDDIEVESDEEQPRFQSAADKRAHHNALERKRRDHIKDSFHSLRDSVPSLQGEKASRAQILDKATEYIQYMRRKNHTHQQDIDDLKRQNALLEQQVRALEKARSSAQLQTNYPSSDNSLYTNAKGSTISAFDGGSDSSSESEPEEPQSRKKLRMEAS

B1: E-box oligonucleotide (dsDNA)
DNA 1: GATCAGTTGACCACGTGGTCTGGG
DNA 2: CCCAGACCACGTGGTCAACTGATC
  binding result: binds
